Assay results from article PMC9352680, “A comprehensive thermodynamic model for RNA binding by the Saccharomyces cerevisiae Pumilio protein PUF4”.
Positions count from the first letter of the chain named. Names may count otherwise.

T1: PUF4 RNA-binding domain (Saccharomyces cerevisiae, UniProt P25339 537-888)
T1 sequence: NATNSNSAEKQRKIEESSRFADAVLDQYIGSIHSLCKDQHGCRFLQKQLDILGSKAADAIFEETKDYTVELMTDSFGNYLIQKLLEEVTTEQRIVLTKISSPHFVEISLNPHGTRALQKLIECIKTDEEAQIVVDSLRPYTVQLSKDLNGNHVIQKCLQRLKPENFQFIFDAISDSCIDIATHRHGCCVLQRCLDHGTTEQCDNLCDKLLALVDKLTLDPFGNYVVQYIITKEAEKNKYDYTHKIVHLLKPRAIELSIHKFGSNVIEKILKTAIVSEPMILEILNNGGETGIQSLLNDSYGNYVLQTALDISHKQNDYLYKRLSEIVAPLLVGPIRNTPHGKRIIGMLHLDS

B1: Id_iii_S2_P4E.5_K4.1_C4.3_H4.1_A4.1_F4.1_T4.2_[T11C] (ssRNA)
RNA: UUUGAUUAAUAUGAUAUCGUUCUUUCUUCUUGUAUAUUAGCUUCUUUCUCGAUAUCAUAUUAAUCUUU
B2: Id_iii_S2_P4E.8_K4.4_C4.3_[C-2T]_H4.1_A4.2_F4.1_T4.2 (ssRNA)
RNA: B1 RNA with C29U, A36U, C41U
B3: Id_iii_S2_P4E.9_K4.5_C4.3_[T-1A]_H4.1_A4.2_F4.2_T4.2 (ssRNA)
RNA: B1 RNA with U30A, A36U, U38A, C41U
B4: Id_iii_S2_P4E.6_K4.2_C4.3_[T-3C]_H4.2_A4.1_F4.1_T4.2 (ssRNA)
RNA: B1 RNA with U28C, G32A, C41U
B5: Id_iii_S2_P4E.6_K4.2_C4.3_[T-1G]_H4.2_A4.1_F4.1_T4.2 (ssRNA)
RNA: B1 RNA with U30G, G32A, C41U
B6: Id_iii_S2_P4E.7_K4.3_C4.3_[T-1A]_H4.3_A4.1_F4.1_T4.2 (ssRNA)
RNA: B1 RNA with U30A, U31A, G32C, U33A, A34C, C41U
B7: Id_iii_S2_P4E.6_K4.2_C4.3_H4.2_A4.1_F4.1_T4.2_[G10A] (ssRNA)
RNA: B1 RNA with G32A, G40A, C41U
B8: Id_iii_S2_P4E.8_K4.4_C4.3_[C-2G]_H4.1_A4.2_F4.1_T4.2 (ssRNA)
RNA: B1 RNA with C29G, A36U, C41U
B9: Id_iii_S2_P4E.6_K4.2_C4.3_H4.2_A4.1_F4.1_T4.2_[G10T] (ssRNA)
RNA: B1 RNA with G32A, G40U, C41U
B10: Id_iii_S2_P4E.8_K4.4_C4.3_H4.1_A4.2_F4.1_T4.2_[G10C] (ssRNA)
RNA: B1 RNA with A36U, G40C, C41U
B11: Id_iii_S2_P4E.6_K4.2_C4.3_[C-2G]_H4.2_A4.1_F4.1_T4.2 (ssRNA)
RNA: B1 RNA with C29G, G32A, C41U
B12: Id_iii_S2_P4E.7_K4.3_C4.3_[T-1C]_H4.3_A4.1_F4.1_T4.2 (ssRNA)
RNA: B1 RNA with U30C, U31A, G32C, U33A, A34C, C41U
B13: Id_iii_S2_P4E.6_K4.2_C4.3_[T-1A]_H4.2_A4.1_F4.1_T4.2 (ssRNA)
RNA: B1 RNA with U30A, G32A, C41U
B14: Id_iii_S2_P4E.8_K4.4_C4.3_H4.1_A4.2_F4.1_T4.2_[T11C] (ssRNA)
RNA: B1 RNA with A36U
B15: Id_iii_S2_P4E.6_K4.2_C4.3_H4.2_A4.1_F4.1_T4.2_[G10C] (ssRNA)
RNA: B1 RNA with G32A, G40C, C41U
B16: Id_iii_S2_P4E.9_K4.5_C4.3_H4.1_A4.2_F4.2_T4.2_[G10C] (ssRNA)
RNA: B1 RNA with A36U, U38A, G40C, C41U
B17: Id_iii_S2_P4E.8_K4.4_C4.3_[C-2A]_H4.1_A4.2_F4.1_T4.2 (ssRNA)
RNA: B1 RNA with C29A, A36U, C41U
B18: Id_iii_S2_P4E.8_K4.4_C4.3_H4.1_A4.2_F4.1_T4.2_[G10T] (ssRNA)
RNA: B1 RNA with A36U, G40U, C41U
B19: Id_iii_S2_P4E.8_K4.4_C4.3_[T-1A]_H4.1_A4.2_F4.1_T4.2 (ssRNA)
RNA: B1 RNA with U30A, A36U, C41U
B20: Id_iii_S2_P4E.9_K4.5_C4.3_[T-1G]_H4.1_A4.2_F4.2_T4.2 (ssRNA)
RNA: B1 RNA with U30G, A36U, U38A, C41U
B21: Id_iii_S2_P4E.7_K4.3_C4.3_H4.3_A4.1_F4.1_T4.2_[T11C] (ssRNA)
RNA: B1 RNA with U31A, G32C, U33A, A34C
B22: Id_iii_S2_P4E.7_K4.3_C4.3_H4.3_A4.1_F4.1_T4.2_[G10T] (ssRNA)
RNA: B1 RNA with U31A, G32C, U33A, A34C, G40U, C41U
B23: Id_iii_S2_P4E.6_K4.2_C4.3_[C-2T]_H4.2_A4.1_F4.1_T4.2 (ssRNA)
RNA: B1 RNA with C29U, G32A, C41U
B24: Id_iii_S2_P4E.8_K4.4_C4.3_[T-3C]_H4.1_A4.2_F4.1_T4.2 (ssRNA)
RNA: B1 RNA with U28C, A36U, C41U
B25: Id_iii_S2_P4E.7_K4.3_C4.3_H4.3_A4.1_F4.1_T4.2_[G10C] (ssRNA)
RNA: B1 RNA with U31A, G32C, U33A, A34C, G40C, C41U
B26: Ic_S1_P5E.1_K5.1_C5.1_H5.1_A5.1_[T5C]_[T6A]_F5.1_T5.1 (ssRNA)
RNA: UCUCUUUGUACAAUUAUCUCUU
B27: Ib_S1_P5E.1_K5.1_C5.1_H5.1_A5.1_[T5C]_[T6G]_F5.1_T5.1 (ssRNA)
RNA: UCUCUUUGUACGAUUAUCUCUU
B28: Ib_S1_P5E.1_K5.1_C5.1_H5.1_A5.1_[T5G]_[T6C]_F5.1_T5.1 (ssRNA)
RNA: UCUCUUUGUAGCAUUAUCUCUU
B29: Ib_S1_P5E.1_K5.1_C5.1_H5.1_[A4T]_A5.1_[A7T]_F5.1_T5.1 (ssRNA)
RNA: UCUCUUUGUUUUUUUAUCUCUU
B30: Ib_S1_P5E.1_K5.1_C5.1_H5.1_A5.1_[T5A]_[T6C]_F5.1_T5.1 (ssRNA)
RNA: UCUCUUUGUAACAUUAUCUCUU
B31: Id_iii_S2_P5E.5_K5.1_C5.3_H5.1_A5.1_F5.1_T5.2_[T11A] (ssRNA)
RNA: UUUGAUUAAUAUGAUAUCGUUCUUUCUUCUUGUAUUAUUAAAUUCUUUCUCGAUAUCAUAUUAAUCUUU
B32: Id_iii_S2_P5E.7_K5.3_C5.3_[T-1G]_H5.3_A5.1_F5.1_T5.2 (ssRNA)
RNA: B31 RNA with U30G, U31A, G32C, U33A, A34C, A41U
B33: Id_iii_S2_P5E.7_K5.3_C5.3_H5.3_A5.1_F5.1_T5.2_[A12T] (ssRNA)
RNA: B31 RNA with U31A, G32C, U33A, A34C, A41U, A42U
B34: Id_iii_S2_P5E.6_K5.2_C5.3_H5.2_A5.1_F5.1_T5.2_[A12T] (ssRNA)
RNA: B31 RNA with G32A, A41U, A42U
B35: Id_iii_S2_P5E.7_K5.3_C5.3_[T-3A]_H5.3_A5.1_F5.1_T5.2 (ssRNA)
RNA: B31 RNA with U28A, U31A, G32C, U33A, A34C, A41U
B36: Id_iii_S2_P5E.7_K5.3_C5.3_[T-1C]_H5.3_A5.1_F5.1_T5.2 (ssRNA)
RNA: B31 RNA with U30C, U31A, G32C, U33A, A34C, A41U
B37: Id_iii_S2_P5E.7_K5.3_C5.3_[T-1A]_H5.3_A5.1_F5.1_T5.2 (ssRNA)
RNA: B31 RNA with U30A, U31A, G32C, U33A, A34C, A41U
B38: Id_iii_S2_P5E.8_K5.4_C5.3_[T-3C]_H5.1_A5.2_F5.1_T5.2 (ssRNA)
RNA: B31 RNA with U28C, U35A, A41U
B39: Id_iii_S2_P5E.7_K5.3_C5.3_[C-2A]_H5.3_A5.1_F5.1_T5.2 (ssRNA)
RNA: B31 RNA with C29A, U31A, G32C, U33A, A34C, A41U
B40: Id_iii_S2_P5E.5_K5.1_C5.3_H5.1_A5.1_F5.1_T5.2_[A12G] (ssRNA)
RNA: B31 RNA with A41U, A42G
B41: Id_iii_S2_P5E.7_K5.3_C5.3_H5.3_A5.1_F5.1_T5.2_[A12C] (ssRNA)
RNA: B31 RNA with U31A, G32C, U33A, A34C, A41U, A42C
B42: Id_iii_S2_P5E.7_K5.3_C5.3_H5.3_A5.1_F5.1_T5.2_[T11C] (ssRNA)
RNA: B31 RNA with U31A, G32C, U33A, A34C, A41C
B43: Id_iii_S2_P5E.5_K5.1_C5.3_H5.1_A5.1_F5.1_T5.2_[A12C] (ssRNA)
RNA: B31 RNA with A41U, A42C
B44: Id_iii_S2_P5E.7_K5.3_C5.3_[C-2G]_H5.3_A5.1_F5.1_T5.2 (ssRNA)
RNA: B31 RNA with C29G, U31A, G32C, U33A, A34C, A41U
B45: Id_iii_S2_P5E.5_K5.1_C5.3_H5.1_A5.1_F5.1_T5.2_[A12T] (ssRNA)
RNA: B31 RNA with A41U, A42U

Molecular target: T1, PUF4 RNA-binding domain
Experiment: Mg; RNA-MaP; 20 mM Na-HEPES pH 7.4, 30 mM KOAc, 0.75 mM MgCl2, 0.1% Tween-20, 5% glycerol, 0.1 mg/mL BSA, 2 mM DTT; 25 C; 0.0125-409.6 nM protein
Settings: tags: N-His6-TEV cleaved; C-SNAP kept, Cy3B-labelled; label: tethered on chip by stalled RNA polymerase

Row | Binder | Kd
1 | B1 | 0.401 nM
2 | B2 | 0.936 nM
3 | B3 | 554 nM
4 | B4 | 3.56 nM
5 | B5 | 10.9 nM
6 | B6 | > 2300 nM
7 | B7 | 10.7 nM
8 | B8 | 1.45 nM
9 | B9 | 3.84 nM
10 | B10 | 2.77 nM
11 | B11 | 13.3 nM
12 | B12 | > 2300 nM
13 | B13 | 6.83 nM
14 | B14 | 1.42 nM
15 | B15 | 5.27 nM
16 | B16 | 77.5 nM
17 | B17 | 1.76 nM
18 | B18 | 0.967 nM
19 | B19 | 1.28 nM
20 | B20 | 502 nM
21 | B21 | > 2300 nM
22 | B22 | 486 nM
23 | B23 | 20.2 nM

Row | Binder | Kd
24 | B24 | 0.923 nM
25 | B25 | 494 nM
26 | B26 | 5.07 nM
27 | B27 | 9.71 nM
28 | B28 | 15.3 nM
29 | B29 | 142 nM
30 | B30 | 4.31 nM
31 | B31 | 3.88 nM
32 | B32 | 963 nM
33 | B33 | 2160 nM
34 | B34 | 42.1 nM
35 | B35 | 709 nM
36 | B36 | 838 nM
37 | B37 | 823 nM
38 | B38 | 5.82 nM
39 | B39 | 579 nM
40 | B40 | 2.58 nM
41 | B41 | > 2300 nM
42 | B42 | 1770 nM
43 | B43 | 1.64 nM
44 | B44 | 2.01 nM
45 | B45 | 1.59 nM
